Measured values: PMC13335484

How the values were obtained:
Gh-TDH wild-type [1] = target: T1, Gh-TDH wild-type (Grimontia hollisae, UniProt A0A377HK12 25-189); test: BLI; 50 mM EDTA; BLI: PBS pH 7.4, 50 mM EDTA, 1 mg/mL BSA, 1000 rpm, temperature not stated; crystals: protein:ssDNA 1:1.3, hanging drop, 20 C; conditions: protein: recombinant; chain copies: 4; label: 5'-biotin
Gh-TDH wild-type [2] = target: T1, Gh-TDH wild-type; test: BLI; 50 mM EDTA; conditions: protein: recombinant, chain copies: 4, label: 5'-biotin

Binder | Kd (Gh-TDH wild-type [2]) [µM] | also measured
AAAAAAAAAAAA (ssDNA) [poly(dA12)] | – | Kd (Gh-TDH wild-type [1]): ~3.08 µM
TTTTTTTTTTTT (ssDNA) [poly(dT12)] | ~3.08 | –
CTCTATAGAGTTTTCTCTATAGAGTTCT (structured_DNA) [stem-loop dsDNA with 4-nt 3'-overhang] | – | Kd (Gh-TDH wild-type [2]; hairpin, 3' overhang 4 nt): 14.8 µM
CCCCCCCCCCCC (ssDNA) [poly(dC12)] | ~3.08 | –
